In publication PMC11088703, “Structural basis of human NOX5 activation” (Nature Communications, 2024):

What was measured:
[1] = biological target: the molecule itself; assay: cryo-EM structure; purified NOX5 in 0.05% digitonin; pre-reaction (5 mM EGTA + 1 mM NADPH), intermediate (1 mM CaCl2 + 1 mM NADPH) and post-reaction (1 mM CaCl2 + 1.2 mM NADP+ + 60 uM FAD) states; C2 symmetry imposed
[2] = biological target: the molecule itself; assay: SEC; Trp fluorescence-based gel filtration; Superose 6 Increase; 20 mM Tris pH 8.0, 200 mM NaCl, 0.004% LMNG/CHS; excitation 280 nm, emission 350 nm

Protein	stoichiometry N [1]	binding result [2]
full-length human NADPH oxidase 5 (NOX5), NOX5-β variant (enzyme, UniProt Q96PH1-4 1-719, looked up, NADPH oxidase 5, human, NOX5-β variant (called v2 isoform in the methods); full length; a Zn2+ is modelled between the two CXXC motifs at the dimer interface; also called NOX5 v2 isoform; hNOX5; source: HEK293F, BacMam virus, purified (GFP-nanobody beads, preScission cleavage, Superose 6 SEC in digitonin); not shown: GFP, N-terminal, cleaved) MSAEEDARWLRWVTQQFKTIAGEDGEISLQEFKAALHVKESFFAERFFALFDSDRSGTITLQELQEALTLLIHGSPMDKLKFLFQVYDIDGSGSIDPDELRTVLQSCLRESAISLPDEKLDQLTLALFESADADGNGAITFEELRDELQRFPGVMENLTISAAHWLTAPAPRPRPRRPRQLTRAYWHNHRSQLFCLATYAGLHVLLFGLAASAHRDLGASVMVAKGCGQCLNFDCSFIAVLMLRRCLTWLRATWLAQVLPLDQNIQFHQLMGYVVVGLSLVHTVAHTVNFVLQAQAEASPFQFWELLLTTRPGIGWVHGSASPTGVALLLLLLLMFICSSSCIRRSGHFEVFYWTHLSYLLVWLLLIFHGPNFWKWLLVPGILFFLEKAIGLAVSRMAAVCIMEVNLLPSKVTHLLIKRPPFFHYRPGDYLYLNIPTIARYEWHPFTISSAPEQKDTIWLHIRSQGQWTNRLYESFKASDPLGRGSKRLSRSVTMRKSQRSSKGSEILLEKHKFCNIKCYIDGPYGTPTRRIFASEHAVLIGAGIGITPFASILQSIMYRHQKRKHTCPSCQHSWIEGVQDNMKLHKVDFIWINRDQRSFEWFVSLLTKLEMDQAEEAQYGRFLELHMYMTSALGKNDMKAIGLQMALDLLANKEKKDSITGLQTRTQPGRPDWSKVFQKVAAEKKGKVQVFFCGSPALAKVLKGHCEKFGFRFFQENF	2	–
NOX5 R426A (enzyme, human, UniProt Q96PH1-4 1-719, looked up, NADPH oxidase 5, human, NOX5-β variant (v2 isoform in the methods; UniProt Q96PH1-4), point mutant; source: HEK293F, purified with the same protocol as NOX5 wild type (GFP-nanobody beads, preScission cleavage); not shown: GFP, N-terminal, cleaved) MSAEEDARWLRWVTQQFKTIAGEDGEISLQEFKAALHVKESFFAERFFALFDSDRSGTITLQELQEALTLLIHGSPMDKLKFLFQVYDIDGSGSIDPDELRTVLQSCLRESAISLPDEKLDQLTLALFESADADGNGAITFEELRDELQRFPGVMENLTISAAHWLTAPAPRPRPRRPRQLTRAYWHNHRSQLFCLATYAGLHVLLFGLAASAHRDLGASVMVAKGCGQCLNFDCSFIAVLMLRRCLTWLRATWLAQVLPLDQNIQFHQLMGYVVVGLSLVHTVAHTVNFVLQAQAEASPFQFWELLLTTRPGIGWVHGSASPTGVALLLLLLLMFICSSSCIRRSGHFEVFYWTHLSYLLVWLLLIFHGPNFWKWLLVPGILFFLEKAIGLAVSRMAAVCIMEVNLLPSKVTHLLIKRPPFFHYAPGDYLYLNIPTIARYEWHPFTISSAPEQKDTIWLHIRSQGQWTNRLYESFKASDPLGRGSKRLSRSVTMRKSQRSSKGSEILLEKHKFCNIKCYIDGPYGTPTRRIFASEHAVLIGAGIGITPFASILQSIMYRHQKRKHTCPSCQHSWIEGVQDNMKLHKVDFIWINRDQRSFEWFVSLLTKLEMDQAEEAQYGRFLELHMYMTSALGKNDMKAIGLQMALDLLANKEKKDSITGLQTRTQPGRPDWSKVFQKVAAEKKGKVQVFFCGSPALAKVLKGHCEKFGFRFFQENF	–	binds
NOX5 R531A (enzyme, human, UniProt Q96PH1-4 1-719, looked up, NADPH oxidase 5, human, NOX5-β variant (v2 isoform in the methods; UniProt Q96PH1-4), point mutant; source: HEK293F, purified with the same protocol as NOX5 wild type (GFP-nanobody beads, preScission cleavage); not shown: GFP, N-terminal, cleaved) MSAEEDARWLRWVTQQFKTIAGEDGEISLQEFKAALHVKESFFAERFFALFDSDRSGTITLQELQEALTLLIHGSPMDKLKFLFQVYDIDGSGSIDPDELRTVLQSCLRESAISLPDEKLDQLTLALFESADADGNGAITFEELRDELQRFPGVMENLTISAAHWLTAPAPRPRPRRPRQLTRAYWHNHRSQLFCLATYAGLHVLLFGLAASAHRDLGASVMVAKGCGQCLNFDCSFIAVLMLRRCLTWLRATWLAQVLPLDQNIQFHQLMGYVVVGLSLVHTVAHTVNFVLQAQAEASPFQFWELLLTTRPGIGWVHGSASPTGVALLLLLLLMFICSSSCIRRSGHFEVFYWTHLSYLLVWLLLIFHGPNFWKWLLVPGILFFLEKAIGLAVSRMAAVCIMEVNLLPSKVTHLLIKRPPFFHYRPGDYLYLNIPTIARYEWHPFTISSAPEQKDTIWLHIRSQGQWTNRLYESFKASDPLGRGSKRLSRSVTMRKSQRSSKGSEILLEKHKFCNIKCYIDGPYGTPTRAIFASEHAVLIGAGIGITPFASILQSIMYRHQKRKHTCPSCQHSWIEGVQDNMKLHKVDFIWINRDQRSFEWFVSLLTKLEMDQAEEAQYGRFLELHMYMTSALGKNDMKAIGLQMALDLLANKEKKDSITGLQTRTQPGRPDWSKVFQKVAAEKKGKVQVFFCGSPALAKVLKGHCEKFGFRFFQENF	–	binds
NOX5 R530A (enzyme, human, UniProt Q96PH1-4 1-719, looked up, NADPH oxidase 5, human, NOX5-β variant (v2 isoform in the methods; UniProt Q96PH1-4), point mutant; source: HEK293F, purified with the same protocol as NOX5 wild type (GFP-nanobody beads, preScission cleavage); not shown: GFP, N-terminal, cleaved) MSAEEDARWLRWVTQQFKTIAGEDGEISLQEFKAALHVKESFFAERFFALFDSDRSGTITLQELQEALTLLIHGSPMDKLKFLFQVYDIDGSGSIDPDELRTVLQSCLRESAISLPDEKLDQLTLALFESADADGNGAITFEELRDELQRFPGVMENLTISAAHWLTAPAPRPRPRRPRQLTRAYWHNHRSQLFCLATYAGLHVLLFGLAASAHRDLGASVMVAKGCGQCLNFDCSFIAVLMLRRCLTWLRATWLAQVLPLDQNIQFHQLMGYVVVGLSLVHTVAHTVNFVLQAQAEASPFQFWELLLTTRPGIGWVHGSASPTGVALLLLLLLMFICSSSCIRRSGHFEVFYWTHLSYLLVWLLLIFHGPNFWKWLLVPGILFFLEKAIGLAVSRMAAVCIMEVNLLPSKVTHLLIKRPPFFHYRPGDYLYLNIPTIARYEWHPFTISSAPEQKDTIWLHIRSQGQWTNRLYESFKASDPLGRGSKRLSRSVTMRKSQRSSKGSEILLEKHKFCNIKCYIDGPYGTPTARIFASEHAVLIGAGIGITPFASILQSIMYRHQKRKHTCPSCQHSWIEGVQDNMKLHKVDFIWINRDQRSFEWFVSLLTKLEMDQAEEAQYGRFLELHMYMTSALGKNDMKAIGLQMALDLLANKEKKDSITGLQTRTQPGRPDWSKVFQKVAAEKKGKVQVFFCGSPALAKVLKGHCEKFGFRFFQENF	–	binds
